Assay results as given in patent US20020150536, “Nucleic acid ligands to integrins” (GILEAD SCIENCES, INC., published 2002).
Numbering of substitutions follows the chain as printed.

B1: 17.16 (ssRNA)
RNA: GGGAGACAAGAAUAAACGCUCAAUUCAACGCUGUGAAGGGCUUAUACGAGCGGAUUACCCUUCGACAGGAGGCUCACAACAGGC
modifications: 2'-F C and U
B2: 17.11 (ssRNA)
RNA: B1 RNA with A27U, C47U, G53A
modifications: 2'-F C and U
B3: 15.39 (ssRNA)
RNA: GGGAGACAAGAAUAAACGCUCAAUCAAUCUCGGACUAGACUAACGACCUUGGUUGACGCUCAUUCGACAGGAGGCUCACAACAGGC
modifications: 2'-F C and U
B4: 7.77 (ssRNA)
RNA: GGGAGACAAGAAUAAACGCUCAAUUCAACGAUGUUGAGGGGCUUAUAUGAGCGCAUUAUACCCUUCGACAGGAGGCUCACAACAGGC
modifications: 2'-F C and U
B5: 15.19 (ssRNA)
RNA: GGGAGACAAGAAUAAACGCUCAAUGUAGCCGCAUGUCGAGCAGCAAUUCCUGCCAUUGUAGGUUCGACAGGAGGCUCACAACAGGC
modifications: 2'-F C and U
B6: 15.13 (ssRNA)
RNA: GGGAGACAAGAAUAAACGCUCAAGCGGGAUUUUCCUGAUCAUCCCACUGAUUCGGGGCCUUACUUCGACAGGAGGCUCACAACAGGC
modifications: 2'-F C and U
B7: 7.5 (ssRNA)
RNA: GGGAGACAAGAAUAAACGCUCAAGGUAGUAAAUGGACUCCUGCCAUCCAAUACUAUCUCUGAGUUCGACAGGAGGCUCACAACAGGC
modifications: 2'-F C and U
B8: 7.13 (ssRNA)
RNA: B5 RNA with C29U
modifications: 2'-F C and U
B9: 7.41 (ssRNA)
RNA: GGGAGACAAGAAUAAACGCUCAAGCGAGCCUAUUGUCUAAGAUGCACCAGGCCUGUUAAGCAUUUCGACAGGAGGCUCACAACAGGC
modifications: 2'-F C and U
B10: 7.66 (ssRNA)
RNA: GGGAGACAAGAAUAAACGCUCAAGUGAACCGAUAAGCGAAAGUAGUACCCCUGCUUGACUACUUUCGACAGGAGGCUCACAACAGGC
modifications: 2'-F C and U
B11: 15.4 (ssRNA)
RNA: GGGAGACAAGAAUAAACGCUCAAUGAUUUCAUGACUUAUGCCGCCGGCAUGACUUCAAUGACGUUCGACAGGAGGCUCACAACAGGC
modifications: 2'-F C and U
B12: 15.5 (ssRNA)
RNA: GGGAGACAAGAAUAAACGCUCAAGCAUUCAAAAUUUGCGAGAACGAAUAGAAGUCCGAGAGCCUUCGACAGGAGGCUCACAACAGGC
modifications: 2'-F C and U
B13: 15.7 (ssRNA)
RNA: GGGAGACAAGAAUAAACGCUCAAUUCUACGAUGUCAAAGGGCUUAUAUGAGCGGAUUACCCUUCGACAGGAGGCUCACAACAGGC
modifications: 2'-F C and U
B14: 15.8 (ssRNA)
RNA: B13 RNA with U27G, A31C, C35U, A36G, U48C
modifications: 2'-F C and U
B15: 17.5 (ssRNA)
RNA: GGGAGACAAGAAUAAACGCUCAAUUCGACGCUGUGAAGGGCUUAUAUGAGCGGAUACACCCUUCGACAGGAGGCUCACAACAGGC
modifications: 2'-F C and U
B16: 15.2 (ssRNA)
RNA: B13 RNA with U27A, A31U
modifications: 2'-F C and U
B17: 15.14 (ssRNA)
RNA: B13 RNA with U27A, G30A, A31U, A36C
modifications: 2'-F C and U
B18: 17.7 (ssRNA)
RNA: B1 RNA with A27U
modifications: 2'-F C and U

molecular target: T1, integrin alphaV beta3 (Homo sapiens, UniProt P06756;P06756;P05106 P06756:31-889,P06756:891-1048,P05106:27-788); test: inhibition; inhibition of biotinylated vitronectin binding (10 nM), room temperature; settings: not given
T1 sequence (P06756 31-889, chain 1 of 3): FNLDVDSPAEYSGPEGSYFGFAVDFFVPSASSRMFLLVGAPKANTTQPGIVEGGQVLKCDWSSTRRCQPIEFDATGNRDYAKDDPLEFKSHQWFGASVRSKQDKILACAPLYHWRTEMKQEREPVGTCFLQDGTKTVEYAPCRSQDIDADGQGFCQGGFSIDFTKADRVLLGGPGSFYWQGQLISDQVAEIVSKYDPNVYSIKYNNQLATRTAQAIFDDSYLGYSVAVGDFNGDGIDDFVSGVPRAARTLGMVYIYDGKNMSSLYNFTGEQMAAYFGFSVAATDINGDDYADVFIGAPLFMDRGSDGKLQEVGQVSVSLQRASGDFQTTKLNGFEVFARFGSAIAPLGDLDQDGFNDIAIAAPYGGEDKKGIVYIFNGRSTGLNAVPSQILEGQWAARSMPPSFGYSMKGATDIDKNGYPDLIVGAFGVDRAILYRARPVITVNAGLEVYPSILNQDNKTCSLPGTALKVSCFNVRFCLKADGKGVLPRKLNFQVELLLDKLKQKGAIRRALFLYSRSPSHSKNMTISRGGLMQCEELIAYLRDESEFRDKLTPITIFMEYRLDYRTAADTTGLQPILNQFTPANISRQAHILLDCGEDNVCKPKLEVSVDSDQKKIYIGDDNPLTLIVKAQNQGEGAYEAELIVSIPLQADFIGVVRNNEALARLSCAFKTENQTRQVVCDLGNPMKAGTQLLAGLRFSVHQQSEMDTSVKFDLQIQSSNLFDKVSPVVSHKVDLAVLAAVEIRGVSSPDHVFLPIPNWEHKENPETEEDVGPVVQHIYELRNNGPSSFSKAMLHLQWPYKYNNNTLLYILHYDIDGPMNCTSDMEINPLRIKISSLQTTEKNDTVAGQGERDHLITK
T1 sequence (P06756 891-1048, chain 2 of 3): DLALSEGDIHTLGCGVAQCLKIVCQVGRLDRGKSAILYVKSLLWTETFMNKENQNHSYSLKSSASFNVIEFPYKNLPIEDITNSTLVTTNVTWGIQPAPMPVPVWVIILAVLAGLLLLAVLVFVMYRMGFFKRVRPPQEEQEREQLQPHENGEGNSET
T1 sequence (P05106 27-788, chain 3 of 3): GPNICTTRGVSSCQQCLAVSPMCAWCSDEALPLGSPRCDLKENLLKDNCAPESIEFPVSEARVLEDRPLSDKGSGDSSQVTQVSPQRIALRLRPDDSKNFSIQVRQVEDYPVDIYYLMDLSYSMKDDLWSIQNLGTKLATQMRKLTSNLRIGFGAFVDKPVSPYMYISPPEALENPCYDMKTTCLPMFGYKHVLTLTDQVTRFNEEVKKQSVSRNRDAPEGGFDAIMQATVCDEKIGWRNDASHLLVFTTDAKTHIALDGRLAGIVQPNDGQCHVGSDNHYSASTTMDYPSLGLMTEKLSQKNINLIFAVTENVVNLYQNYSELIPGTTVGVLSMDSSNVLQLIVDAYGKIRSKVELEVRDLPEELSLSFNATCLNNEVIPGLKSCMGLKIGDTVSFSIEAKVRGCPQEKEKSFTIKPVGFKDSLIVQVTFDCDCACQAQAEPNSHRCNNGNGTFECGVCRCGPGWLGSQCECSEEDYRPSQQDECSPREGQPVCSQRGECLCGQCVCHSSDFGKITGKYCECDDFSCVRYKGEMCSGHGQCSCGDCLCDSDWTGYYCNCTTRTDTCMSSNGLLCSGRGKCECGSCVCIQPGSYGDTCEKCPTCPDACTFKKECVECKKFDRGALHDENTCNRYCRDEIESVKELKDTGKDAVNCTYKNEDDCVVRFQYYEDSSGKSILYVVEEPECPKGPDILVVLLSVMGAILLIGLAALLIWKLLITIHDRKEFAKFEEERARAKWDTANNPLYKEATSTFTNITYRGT
Description: (§1) While the SELEX process identifies RNA sequences with high affinity for a particular target, the procedure used in this example was designed to bias for the recovery of ligand binding site inhibitors by the inclusion of a cRGD peptide competitor in the elution buffer. To test whether aptamer 17.16 could block the ligand binding site of αᵥβ₃ or αIIbβ₃, purified vitronectin and fibrinogen were biotinylated and incubated with one or both of the immobilized integrins in the presence or absence of varying concentrations of the aptamer or a non-binding control RNA. This was done as follows: purified integrin ligands, vitronectin and fibrinogen, were biotinylated according to (Smith et al. (1990) J. Biol. Chem. 265:12267-71). Briefly, proteins were dialyzed into 0.1 M NaHCO₃, 0.1 M NaCl. N-hydroxysuccinimido-LC-biotin (Pierce) was dissolved at 1 mg/mL in DMSO and added to the protein at a ratio of 0.1 mg biotin per 1 mg protein. The reaction was allowed to rotate at room temperature for 2 hours. Biotinylated proteins were dialyzed into phosphate-buffered saline and their concentrations determined by absorbance at 280 nm. […] Absorbance was read at 405 nm.

Binder | IC50
B1 | 4.7 nM

molecular target: integrin alphaV beta5 (Homo sapiens, UniProt P06756;P06756;P18084 P06756:31-889,P06756:891-1048,P18084:24-799); test: no binding observed to immobilized alphaV beta5; settings: tags: Chemicon International
Sequence (P06756 31-889, chain 1 of 3): as the sequence (P06756 31-889, chain 1 of 3) above
Sequence (P06756 891-1048, chain 2 of 3): as the sequence (P06756 891-1048, chain 2 of 3) above
Sequence (P18084 24-799, chain 3 of 3): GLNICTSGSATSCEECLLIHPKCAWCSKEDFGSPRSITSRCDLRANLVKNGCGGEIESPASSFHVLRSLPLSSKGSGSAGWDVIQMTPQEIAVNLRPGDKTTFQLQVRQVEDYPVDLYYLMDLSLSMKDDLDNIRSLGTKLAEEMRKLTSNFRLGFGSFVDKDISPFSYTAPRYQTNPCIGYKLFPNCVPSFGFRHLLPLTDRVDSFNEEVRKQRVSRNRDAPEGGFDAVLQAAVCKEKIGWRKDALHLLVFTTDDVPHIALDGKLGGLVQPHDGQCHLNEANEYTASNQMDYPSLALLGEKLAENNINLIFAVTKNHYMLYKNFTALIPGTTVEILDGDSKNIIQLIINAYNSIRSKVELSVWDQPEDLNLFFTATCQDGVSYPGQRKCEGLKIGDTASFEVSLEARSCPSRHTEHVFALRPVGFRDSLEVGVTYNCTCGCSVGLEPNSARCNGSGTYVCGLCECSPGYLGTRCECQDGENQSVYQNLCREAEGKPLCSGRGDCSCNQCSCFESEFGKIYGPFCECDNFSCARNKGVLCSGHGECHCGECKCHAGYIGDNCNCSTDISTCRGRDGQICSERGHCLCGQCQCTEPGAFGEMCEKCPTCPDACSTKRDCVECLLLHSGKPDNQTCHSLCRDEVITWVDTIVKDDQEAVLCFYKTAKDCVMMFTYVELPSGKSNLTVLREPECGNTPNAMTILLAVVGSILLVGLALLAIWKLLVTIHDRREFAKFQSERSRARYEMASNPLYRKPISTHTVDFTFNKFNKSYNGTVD
Description: (§2) The affinity of individual RNAs and RNA pools for αᵥβ₃ was determined by titration of biotinylated RNA with a small quantity of immobilized integrin. Bound RNA was detected through the biotin moiety. Biotinylated RNA was prepared according to standard transcription protocols, but including a 5-fold molar excess of a 5′-biotin-modified GMP over GTP in the reaction mixture. Methods for synthesizing 5′-biotin-modified guanosine nucleotides are described in WO 98/30720 entitled “Bioconjugation of Oligonucleotides,” specifically incorporated herein by reference in its entirety. The modified nucleotide is incorporated at the 5′ end of the transcript in proportion to its representation in the guanosine pool. 96-well microtiter plates (Immulon 2, Dynatech Laboratories, Inc., Chantilly, Va.) were coated overnight at 4° C. with 100 μL purified αᵥβ₃ at a concentration of 0.25 μg/mL in 20 mM TrisHCl, pH 7.5, 150 mM NaCl, 1 mM MgCl₂, 2 mM CaCl₂, 0.1 mM MnCl₂. Coating concentrations were 0.8 μg/mL for αIIbβ₃ and 0.3 μg/mL for αᵥβ₅. Wells were blocked with 200 μL of a solution of 3% BSA in the same buffer (1 hour at room temperature) then rinsed 3 times with 200 μL binding buffer (50 mM TrisHCl, pH 7.5, 137 mM NaCl, 2.7 mM KCl, 1 mM MgCl₂, 2 mM CaCl₂, 0.1 mM MnCl₂, 0.1% BSA). […] Color development was monitored by absorbance at 405 nm.

Binder | binding result
B1 | no binding

molecular target: T1, integrin alphaV beta3; test: inhibition; inhibition of biotinylated fibrinogen binding (6 nM), room temperature; settings: not given
Description: (§3) An estimate of the maximum absorbance value was determined for each ligand/integrin pair in the absence of competitor. The baseline absorbance value was determined by adding 5 mM EDTA to the incubation buffer.
as §1

Binder | IC50
B1 | 9.5 nM

molecular target: T2, integrin alphaIIb beta3 (UniProt P08514;P08514;P05106 P08514:32-887,P08514:891-1039,P05106:27-788); test: as above; settings: tags: Enzyme Research Laboratories
Description: as §3, §1

Binder | IC50
B1 | 6.5 nM

molecular target: T2, integrin alphaIIb beta3; test: affinity identical to alphaV beta3; platelet Kd of ~10 nM stated equivalent to purified alphaIIb beta3; settings: tags: Enzyme Research Laboratories
Description: as §2

Binder | Kd
B1 | ~10 nM

molecular target: integrin alphaIIb beta3 on human platelets (Homo sapiens, UniProt P08514;P08514;P05106 P08514:32-887,P08514:891-1039,P05106:27-788); test: flow; EDTA-sensitive binding, same for resting and thrombin-activated platelets; Mg2+, Ca2+, room temperature; settings: not given

Binder | Kd
B1 | ~10 nM

molecular target: T1, integrin alphaV beta3; test: microtiter plate, streptavidin-AP; Mg2+, Ca2+, Mn2+, pH 7.5, 37 C; settings: not given
Description: The affinity of individual RNAs and RNA pools for αᵥβ₃ was determined by titration of biotinylated RNA with a small quantity of immobilized integrin. Bound RNA was detected through the biotin moiety. Biotinylated RNA was prepared according to standard transcription protocols, but including a 5-fold molar excess of a 5′-biotin-modified GMP over GTP in the reaction mixture. Methods for synthesizing 5′-biotin-modified guanosine nucleotides are described in WO 98/30720 entitled “Bioconjugation of Oligonucleotides,” specifically incorporated herein by reference in its entirety. The modified nucleotide is incorporated at the 5′ end of the transcript in proportion to its representation in the guanosine pool. 96-well microtiter plates (Immulon 2, Dynatech Laboratories, Inc., Chantilly, Va.) were coated overnight at 4° C. with 100 μL purified αᵥβ₃ at a concentration of 0.25 μg/mL in 20 mM TrisHCl, pH 7.5, 150 mM NaCl, 1 mM MgCl₂, 2 mM CaCl₂, 0.1 mM MnCl₂. Coating concentrations were 0.8 μg/mL for αIIbβ₃ and 0.3 μg/mL for αᵥβ₅. Wells were blocked with 200 μL of a solution of 3% BSA in the same buffer (1 hour at room temperature) then rinsed 3 times with 200 μL binding buffer (50 mM TrisHCl, pH 7.5, 137 mM NaCl, 2.7 mM KCl, 1 mM MgCl₂, 2 mM CaCl₂, 0.1 mM MnCl₂, 0.1% BSA). Individual RNAs or RNA pools were denatured briefly at 93° C. in binding buffer without divalent cations or BSA, then serially diluted in the same buffer. 50 μL binding buffer containing 2×-concentrations of divalent cations and BSA were added to each well, followed by 50 μL RNA dilution. RNAs were allowed to incubate in the integrin-coated wells at 37° C. for 30-60 minutes. Unbound RNAs were removed by 3 rapid washes in binding buffer. To detect bound RNA, 100 μL of a 1:2500 dilution in binding buffer of streptavidin-alkaline phosphatase conjugate (Calbiochem) were incubated in each well for 30 minutes at room temperature, followed by three rapid washes, as above. 100 μL/well p-nitrophenyl phosphate (Sigma Chemical Co., St. Louis, Mo.) was added and incubated at room temperature for 30 minutes. Color development was monitored by absorbance at 405 nm.

Binder | Kd
B1 | 8 nM

same assay, conditions: label: 5'-biotin

Binder | Kd
B2 | 4 nM
B3 | 410 nM
B4 | 770 nM
B5 | 770 nM
B6 | 790 nM
B7 | > 1000 nM
B8 | > 1000 nM
B9 | > 1000 nM
B10 | > 1000 nM
B11 | 2000 nM
B12 | 4000 nM
B13 | 5 nM
B14 | 5 nM
B15 | 5 nM
B16 | 6 nM
B17 | 6 nM
B18 | 6 nM
